Results reported in patent publication US20110318339A1 (FABRUS, published 2011).
Numbering of substitutions follows the chain as printed. In names and notes the source's numbering stands. Each block holds one binder with its values, some of them ahead of it.

Tests used:
[1] = biological target: T1, recombinant human DLL4 (Cat# 1506-D4/CF, R&D Systems) (human, UniProt Q9NR61 27-529); experiment: ELISA, hDLL4 coated 0.5 ng/ul, Fab 1.56 nM
T1 construct: Bought protein; also called hDLL4; h DLL4
Procedure: (§1) The plate was blocked by adding 1% BSA in Tris-buffered Saline Tween (TBST) and incubating for 1 hour at room temperature followed by washing 2 times with 150 μl TBST. A Fab antibody was serially diluted in 1% BSA in PBS. A 50 μl aliquot of each serial dilution was added, in triplicate, to each well and the plate was incubated for 1 hour at room temperature followed by washing 2 times with TBST. 50 μl of either goat anti-human kappa HRP conjugated secondary antibody (Cat # A7164-1 mL, Sigma-Aldrich) or goat anti-human lambda HRP conjugated secondary antibody (Cat # L1645-1 ml, Sigma-Aldrich), diluted 1:1000 in 1% BSA in PBS, was added to each well and the plate was incubated for 30 minutes at room temperature followed by washing 3 times with 200 μl TBST. Finally, 50 μl TMB one-component reagent (Cat # TMBW-1000-01, BioFax) was added and allowed to develop for 2 minutes at room temperature. The reaction was immediately halted by the addition of 50 μl 0.5M H₂SO₄ and the absorbance at 450 nm was measured using an ELISA plate reader.

[2] = biological target: T1, recombinant human DLL4 (Cat# …); experiment: ELISA, hDLL4 coated 0.5 ng/ul, Fab 50.00 nM
Procedure: as §1

[3] = biological target: T1, recombinant human DLL4 (Cat# …); experiment: ELISA, hDLL4 coated 0.5 ng/ul, Fab 3.13 nM
Procedure: as §1

[4] = biological target: T1, recombinant human DLL4 (Cat# …); experiment: ELISA, hDLL4 coated 0.5 ng/ul, Fab 25.00 nM
Procedure: as §1

[5] = biological target: T1, recombinant human DLL4 (Cat# …); experiment: ELISA, hDLL4 coated 0.5 ng/ul, Fab 0.78 nM
Procedure: as §1

[6] = biological target: T1, recombinant human DLL4 (Cat# …); experiment: ELISA, hDLL4 coated 0.5 ng/ul, Fab 100.00 nM
Procedure: as §1

[7] = biological target: T1, recombinant human DLL4 (Cat# …); experiment: ELISA, hDLL4 coated 0.5 ng/ul, Fab 6.25 nM
Procedure: as §1

[8] = biological target: T1, recombinant human DLL4 (Cat# …); experiment: ELISA, hDLL4 coated 0.5 ng/ul, Fab 12.50 nM
Procedure: as §1

[9] = biological target: T2, full-length human DLL4 expressed on the surface of CHO cells (human, UniProt Q9NR61 26-685); experiment: flow cytometry competition, 250 nM biotinylated Notch-Fc as competitor, Fab 2 nM
T2 construct: also called CHO-DLL4; DLL4-expressing CHO cells
Procedure: (§2) Streptavidin-PE was used as a detection molecule.
(§3) Fab was 5-fold serially diluted in 2% BSA/PBS from a starting concentration of 50 nM. […] PE-labeled streptavidin (Cat# 21627, Pierce-Thermo Scientific) was then added to a final dilution of 1:5 followed by incubation for 10 minutes at room temperature. The cells were then washed twice in 2% BSA/PBS and analyzed by flow cytometry on a BD FACSAria.

[10] = biological target: T2, full-length human DLL4 expressed on the …; experiment: flow cytometry competition, 250 nM biotinylated Notch-Fc as competitor, Fab 50 nM
Procedure: as §2, §3

[11] = biological target: T2, full-length human DLL4 expressed on the …; experiment: flow cytometry competition, 250 nM biotinylated Notch-Fc as competitor, Fab 10 nM
Procedure: as §2, §3

ELISA absorbance at 450 nm [1]: 0.148 A450 | ELISA absorbance at 450 nm [2]: 0.661 A450 | ELISA absorbance at 450 nm [3]: 0.167 A450 | ELISA absorbance at 450 nm [4]: 0.421 A450 | ELISA absorbance at 450 nm [5]: 0.145 A450 | ELISA absorbance at 450 nm [6]: 1.07 A450 | ELISA absorbance at 450 nm [7]: 0.229 A450 | ELISA absorbance at 450 nm [8]: 0.294 A450
B1: Fab VH5-51_IGHD5-18*01>3_IGHJ4*01 G100K/G104T G24T/S28R/G35V (H:KT TRV) & V3-4_IGLJ1*01 M94R/S96M (L:RM) (Fab, V domains shown)
VH: EVQLVQSGAEVKKPGESLKISCKTSGYRFTSYWIVWVRQMPGKGLEWMGIIYPGDSDTRYSPSFQGQVTISADKSISTAYLQWSSLKASDTAMYYCARRKYSYTYDYFDYWGQGTLVTVSS
VL: QTVVTQEPSFSVSPGGTVTLTCGLSSGSVSTSYYPSWYQQTPGQAPRTLIYSTNTRSSGVPDRFSGSILGNKAALTITGAQADDESDYYCVLYRGMGISYVFGTGTKVTVL
notes: Tested as Fab from E. coli (Plasmid A: CH1, His6, Flag; Plasmid E: CL lambda); also called H:KT TRV & L:RM; KT TRV / RM

signal of Notch-Fc bound to CHO-DLL4 (streptavidin-PE) [9]: 250 | signal of Notch-Fc bound to CHO-DLL4 (streptavidin-PE) [10]: 105 | signal of Notch-Fc bound to CHO-DLL4 (streptavidin-PE) [11]: 190
B2: Fab VH5-51_IGHD5-18*01>3_IGHJ4*01 G100K/G104T G24T/S28R/G35V (H:KT TRV) & V3-4_IGLJ1*01 V91L/S96P S52G (L:LP S52G) (Fab, V domains shown)
VH: B1 VH
VL: B1 VL with S52G, V91L, R94M, M96P
notes: Tested as Fab from E. coli (Plasmid A: CH1, His6, Flag; Plasmid E: CL lambda); also called H:KT TRV & L:LP S52G

ELISA absorbance at 450 nm [1]: 0.148 A450 | ELISA absorbance at 450 nm [2]: 0.524 A450 | ELISA absorbance at 450 nm [3]: 0.164 A450 | ELISA absorbance at 450 nm [4]: 0.333 A450 | ELISA absorbance at 450 nm [5]: 0.138 A450 | ELISA absorbance at 450 nm [6]: 0.67 A450 | ELISA absorbance at 450 nm [7]: 0.203 A450 | ELISA absorbance at 450 nm [8]: 0.226 A450
B3: Fab VH5-51_IGHD5-18*01>3_IGHJ4*01 G100K/G104T S28R (H:KT S28R) & V3-4_IGLJ1*01 (Fab, V domains shown)
VH: B1 VH with T24G, V35G
VL: B1 VL with R94M, M96S
notes: Tested as Fab from E. coli (Plasmid A: CH1, His6, Flag); Plasmid E: CL lambda; also called H:KT S28R & L:wt
